Data reported in patent US20120076796A1 (Ablynx, published 2012).
Changes are numbered by the printed parent chain.

B1: 168-A3 (VHH)
VHH: EVQLVESGGGLVQPGGSLRLSCAASGFTLSGNWMYWLRQAPGKGLEWISTITPRGLTAYADSVKGRFTISRDIAENTLYLQMNSLKSGDTAVYYCARDKTGERRGQGTQVTVSS
notes: Nanobody
B2: 168-E5 (VHH)
VHH: B1 VHH with G31S, G55D, I73N, G88E, R97K, T100A
notes: Nanobody
B3: 169-A12 (VHH)
VHH: EVQLVESGGGLVQPGGSLRLSCVASGSIRSIIHMGWYRQAPGNERDLVAVIIDSRTTKYSESVKGRFTISRDNAKNTVYLQMNSLKPEDTAVYYCNALALGTDQSSTFDSWGQGTQVTVSS
notes: Nanobody
B4: 169-C12 (VHH)
VHH: B3 VHH with V23A, A40T, L47M, S60A
notes: Nanobody
B5: 169-F11 (VHH)
VHH: EVQLVESGGGLVQPGGSLRLSCATSGFTFSTSWMYWLRQAPGKGLEWVSTITPRGLTDYTNSVKGRFTVSRDNAKNTLYLQMNSLKSEDTAVYYCTKDKNGPPMGQGTQVTVSS
notes: Nanobody
B6: 169-C8 (VHH)
VHH: B5 VHH with N61D, V69I, N73S, V92D, K97R
notes: Nanobody
B7: 169-A10 (VHH)
VHH: B5 VHH with T31P, D58E, T60A, V69I, R71K, K97R
notes: Nanobody
B8: 168-G3 (VHH)
VHH: EVQLVESGGGLVQPGGSLRLSCAASGSTLDYYAIGWYRQAPGKEREWVSCISSSNYGITTYADSVKGRFTISRDNAKNTVYLQMNSLKPEDTAIYYCATNTRRKYGRLCDLNADYWGQGTQVTVSS
notes: Nanobody
B9: 169-B12 (VHH)
VHH: EVQLVESGGGLVQAGGSLRLSCAASGSIFSINAMGWYRQAPGNQRDLVAAITSGDSTKYADFVKGRFTISRDNAKNTVYLQMNSLKPEDTAVYYCAAELLGKWYWGQGTQVTVSS
notes: Nanobody
B10: 169-E12 (VHH)
VHH: B9 VHH with A33T, S53N, D55G, A60V, F62S, L99S, K102R, Y104G
notes: Nanobody
B11: 166-C1 (VHH)
VHH: EVQLVESGGGLVQAGGSLRLSCAASGFTFGSTTIGWFRQAPGKEREGVSCISTGDGSTYYAESVKGRFTISSDNAKNTVYLQMNSLKPEDTAVYYCALDQAPMWSSWSAPYEYDYWGQGTQVTVSS
notes: Nanobody
B12: 166-F8 (VHH)
VHH: B11 VHH with S31T, G47V, D55G, A61T, S106N
notes: Nanobody
B13: 166-D7 (VHH)
VHH: B11 VHH with G30S, S31D, V48I, K87N, M103L, S106T
notes: Nanobody
B14: 166-C10 (VHH)
VHH: B11 VHH with S31T, Y59N
notes: Nanobody
B15: 166-E12 (VHH)
VHH: B11 VHH with E1K
notes: Nanobody
B16: 166-D4 (VHH)
VHH: EVQLVESGGGLVQAGGSLRLSCVASGRIFTNTAMGWYRQAPGKWRELVATIYSGGSTKYIDSVKGRFIISRDNTRNTVHLQMNSLKPEDTAVYYCNTVGAGSYWGQGAQVTVSS
notes: Nanobody
B17: 162-F11 (VHH)
VHH: EVQLVESGGGLVQAGGSLRLSCAASGFTFDDYAIGWFRQAPGKEREGVACISSSDGSTYYADSVKGRFTISSDNAKNTVYLQMNSLKPEDTAVYSCSAGSVAGCIPYYWGQGTQVTVSS
notes: Nanobody
B18: 163-E7 (VHH)
VHH: EVQLVESGGGLVQPGGSLRLSCAASGFTFSDYSMSWVRQAPGKGLEWVSAISGGGEVTTYADSVKGRFTISRDNAKNTLYLQMSSLKPEDTALYYCAEHLNFYSVSVRSSPTSQGTQVTVSS
notes: Nanobody
B19: 162-H10 (VHH)
VHH: EVQLVESGGGLVQPGGSLRLSCAASGFTLDDYAVGWFRQAPGKEREGVSCIGSSYGSTYYADSVKGRFTISRDNAKNTVYLQMNSLKPEDTAVYYCAVQGYSGGYYYTCEDSADFGFWGQGTQVTVSS
notes: Nanobody
B20: 163-H8 (VHH)
VHH: EVQLVESGGGLVQPGGSLRLSCAASGFTFGSNGMRWVRQAPGKGPEWVSSINSDGTSTYYAESVKGRFTISRDNAKNTLYLQMHSLKPEDTAVYYCTTTENPNPRGPGTQVTVSS
notes: Nanobody
B21: 163-E9 (VHH)
VHH: B20 VHH with G16D, E62D, Y80C, H84N, N101D, N103Y, P107Q
notes: Nanobody; also called Nanobody 163E9; Tie-2 Nanobody 163E9
B22: 163-G8 (VHH)
VHH: B20 VHH with T58A, Y59F, H84N, E100M, P107Q
notes: Nanobody

target: T1, Recombinant human Angiopoietin-4 (R&D Systems Cat No 964-AN/CF) (human, UniProt Q9Y264 25-503, limits assumed); test: phage ELISA on coated Ang4: 10 ul monoclonal phage supernatant in 100 ul, anti-M13-HRP, OD 450 nm
T1 construct: Bought reagent; also called Ang4
T1 sequence (looked up): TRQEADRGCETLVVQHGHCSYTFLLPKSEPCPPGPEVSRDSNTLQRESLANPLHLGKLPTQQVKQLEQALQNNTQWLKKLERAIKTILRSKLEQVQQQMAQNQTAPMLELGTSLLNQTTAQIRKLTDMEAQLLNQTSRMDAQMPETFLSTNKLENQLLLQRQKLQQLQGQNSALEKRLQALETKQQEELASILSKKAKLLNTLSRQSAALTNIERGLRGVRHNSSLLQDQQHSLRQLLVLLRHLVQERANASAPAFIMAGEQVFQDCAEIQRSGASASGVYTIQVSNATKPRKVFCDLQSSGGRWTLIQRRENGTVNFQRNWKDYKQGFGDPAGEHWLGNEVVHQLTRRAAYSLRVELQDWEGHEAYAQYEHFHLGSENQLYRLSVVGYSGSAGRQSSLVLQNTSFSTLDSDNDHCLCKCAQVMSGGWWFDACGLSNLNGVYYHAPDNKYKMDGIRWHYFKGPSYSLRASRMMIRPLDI

Binding result, binds:
B1, B2, B3, B4, B5, B6, B7, B8, B9, B10

target: T2, biotinylated rh Ang2 (R&D Systems Cat No BT623, Lot No BNR174091) (human, UniProt O15123 19-496, limits assumed, biotinylated (sites not given)); test: competition ELISA: 0.05 ug/ml biotinylated Ang2 pre-incubated with 10 ul periplasmic extract, then on coated Tie2/Fc (4 ug/ml); bound Ang2 detected with extravidin-HRP; blocked partner: Tie2/Fc
T2 construct: Bought reagent; also called biotinylated Ang2
T2 sequence (looked up): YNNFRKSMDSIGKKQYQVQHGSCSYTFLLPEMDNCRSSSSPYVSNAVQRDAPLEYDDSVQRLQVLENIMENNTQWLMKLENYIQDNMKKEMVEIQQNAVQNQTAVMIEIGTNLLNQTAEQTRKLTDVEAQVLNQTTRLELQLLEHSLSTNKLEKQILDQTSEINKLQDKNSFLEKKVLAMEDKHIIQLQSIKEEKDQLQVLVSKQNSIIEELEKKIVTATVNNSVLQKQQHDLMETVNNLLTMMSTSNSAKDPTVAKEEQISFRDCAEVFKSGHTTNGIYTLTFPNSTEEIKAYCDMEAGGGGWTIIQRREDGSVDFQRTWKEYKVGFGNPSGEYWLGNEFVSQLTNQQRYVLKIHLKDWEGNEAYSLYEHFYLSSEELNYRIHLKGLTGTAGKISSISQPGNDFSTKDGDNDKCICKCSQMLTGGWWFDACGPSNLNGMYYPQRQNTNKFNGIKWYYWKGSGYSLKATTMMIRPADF
Description: Clones tested positive in the Ang2 binding assay are screened for their ability to block Ang2 binding to Tie2/Fc. For this, Nanobody-containing periplasmic extracts (P.E.) are used in an ELISA-based ligand competition setup. In short, 4 ug/ml human Tie2/Fc Chimera (R&D Systems Cat No 313-TI, Lot No BKC06)) is coated in 96 well Maxisorp microliter plates (Nunc) and blocked with 4% Marvel skimmed milk in PBS. In parallel, 0.05 ug/ml biotinylated rh Ang2 (R&D Systems Cat No BT623, Lot No BNR174091) is incubated with 10 ul of periplasmic extract containing nanobody of the different clones in 100 ul 2% Marvel/PBS. After 1 hour, the biotinylated Ang2-Nanobody pre-mixes are incubated 1 hour with the coated receptor. Bound biotinylated. Ang2 is detected using HRP-conjugated extravidin (SIGMA E2886-1mL, 126K4801). Blocking activity is determined as loss of OD signal, as compared to wells where no P.E., or irrelevant P.E., has been added.

Binding result, binds:
B11, B12, B13, B14

target: T3, Recombinant human Angiopoietin-2 (R&D Systems Cat No 623-AN/CF) (human, UniProt O15123 19-496, limits assumed); test: phage ELISA: 10 ul monoclonal phage supernatant in 100 ul on 0.2 ug/ml coated Ang2, anti-M13-HRP, OD 450 nm
T3 construct: Bought reagent; also called Ang2; human Ang2
T3 sequence (looked up): T2 sequence (looked up)
Description: In order to determine binding specificity to Ang2, the clones are tested in an ELISA binding assay setup, using the monoclonal phage pools. Phage binding to Ang2 (R&D Systems Cat No 623-AN/CF) is tested. Shortly, 0.2 ug/ml Ang2 is immobilized on Maxisorp ELISA plates (Nuns) and free binding sites are blocked using 4% Marvel skimmed milk in PBS. Next, 10 ul of supernatant from the monoclonal phage inductions of the different clones in 100 ul 2% Marvel. PBS are allowed to bind to the immobilized antigen. […] Binding specificity is determined based on OD values compared to controls having received an irrelevant phage or no phage.

Binding result, binds:
B11, B15, B12, B13, B14, B16

target: T4, recombinant human Tie2/Fc Chimera (R&D Systems Cat No 313-TI, Lot No BKC06) (human, UniProt Q02763 23-745); test: competition ELISA: 0.2 ug/ml Tie2/Fc pre-incubated with 10 ul periplasmic extract, then on coated Ang1 (0.75 ug/ml); bound Tie2/Fc detected with anti-human IgG-HRP; blocked ligand: Ang1
T4 construct: Bought reagent; also called receptor; not shown: Fc portion of the bought chimera
T4 sequence (Q02763 23-745, change not shown): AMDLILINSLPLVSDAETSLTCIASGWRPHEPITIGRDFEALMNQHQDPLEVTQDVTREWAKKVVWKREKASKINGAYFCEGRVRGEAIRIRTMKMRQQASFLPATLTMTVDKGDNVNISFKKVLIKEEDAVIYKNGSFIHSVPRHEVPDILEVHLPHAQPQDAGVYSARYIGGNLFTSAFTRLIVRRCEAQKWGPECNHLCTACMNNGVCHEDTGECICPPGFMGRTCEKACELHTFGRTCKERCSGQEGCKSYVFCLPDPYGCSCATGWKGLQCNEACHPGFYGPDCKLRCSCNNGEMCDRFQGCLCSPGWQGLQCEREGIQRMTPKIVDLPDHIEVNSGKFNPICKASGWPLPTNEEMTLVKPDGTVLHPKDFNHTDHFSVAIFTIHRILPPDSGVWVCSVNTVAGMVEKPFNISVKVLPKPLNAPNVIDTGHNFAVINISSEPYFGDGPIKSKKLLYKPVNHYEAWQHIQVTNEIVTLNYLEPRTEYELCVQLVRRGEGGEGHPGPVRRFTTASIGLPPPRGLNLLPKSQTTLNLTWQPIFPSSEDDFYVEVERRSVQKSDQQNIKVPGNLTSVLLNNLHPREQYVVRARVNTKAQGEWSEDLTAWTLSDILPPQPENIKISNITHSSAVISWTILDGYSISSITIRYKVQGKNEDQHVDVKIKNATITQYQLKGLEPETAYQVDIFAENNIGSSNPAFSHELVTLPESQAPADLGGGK
Description: Clones tested positive in the Tie2 binding assay are screened for their ability to block Ang1 binding to Tie2/Fc. For this, Nanobody-containing periplasmic extracts (P.E.) are used in an ELISA-based ligand competition setup. In short, 0.75 ug/ml human Ang1 (R&D Systems Cat No 923-AN/CF Lot No FHWO73091) is coated in 96 well Maxisorp microtiter plates (Nunc) and blocked with 4% Marvel skimmed milk in PBS. In parallel, 0.2 ug/ml Tie2/Fc is incubated with 10 ul of periplasmic extract P.E. containing nanobody of the different clones in 100 ul 2% Marvel/PBS. After 1 hour, the receptor-Nanobody pre-mixes are incubated 1 hour with the coated ligand. Bound Tie2/Fc is detected using HRP-conjugated goat anti-human IgG (Jackson Immunoresearch, Cat #109-035-098). Blocking activity is determined as loss of OD signal, as compared to wells where no P.E., or irrelevant P.E., has been added.

Binding result, binds:
B17, B18, B19, B20, B21, B22
